Target: T1, Bd0109 (Bdellovibrio bacteriovorus HD100, UniProt Q6MRH5 1-550)
T1 sequence (looked up): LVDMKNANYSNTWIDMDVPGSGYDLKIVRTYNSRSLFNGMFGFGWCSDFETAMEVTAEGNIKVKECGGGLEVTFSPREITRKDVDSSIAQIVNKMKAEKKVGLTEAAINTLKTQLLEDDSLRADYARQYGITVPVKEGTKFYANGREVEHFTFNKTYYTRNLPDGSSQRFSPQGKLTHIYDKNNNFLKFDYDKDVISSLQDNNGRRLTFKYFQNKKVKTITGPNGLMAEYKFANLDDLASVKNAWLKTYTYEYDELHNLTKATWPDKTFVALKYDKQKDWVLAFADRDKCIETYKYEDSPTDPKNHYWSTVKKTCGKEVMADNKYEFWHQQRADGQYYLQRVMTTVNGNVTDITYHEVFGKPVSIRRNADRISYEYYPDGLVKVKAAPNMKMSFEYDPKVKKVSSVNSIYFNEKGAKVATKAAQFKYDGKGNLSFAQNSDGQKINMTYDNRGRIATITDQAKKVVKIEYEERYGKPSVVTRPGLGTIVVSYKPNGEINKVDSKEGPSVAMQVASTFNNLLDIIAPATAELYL
Experiment: ITC; 1.2 mM Bd0108 titrated into 0.02 mM Bd0109; VP-ITC, 25°C; 20 mM Tris pH 7.0 100 mM NaCl 1 mM β-ME; one-site model
Details: both partners purified

- Kd: 45 µM
- dH: -2.08 kcal/mol
- stoichiometry N: 3.1
B1: Bd0108 (natural protein, Bdellovibrio bacteriovorus HD100)
chain: SHMADENANRPVNPGEDPNEAFRSTPFEATTSALGDCRECIAYRTGATTGKGSRRHDDTVSREIKGSSATPGGSEKAGTGRQ
modifications: disulfide between C56 and C59; 15N-labelled in the NMR titration
notes: tripeptide left on the mature N-terminus after thrombin cleavage of the His tag (cloning artefact); Bd0108 of Bdellovibrio bacteriovorus HD100, a 101 amino acid protein with an N-terminal Sec signal peptide; amino acids 23-101 cloned into pET28b; The assigned cloning artefacts (residues 21 and 22) in the titration point to this cytoplasmic construct and not to the PelB construct; also called …

From paper PMC4267844, “The Lifestyle Switch Protein Bd0108 of Bdellovibrio bacteriovorus Is an Intrinsically Disordered Protein” (PLoS ONE, 2014)
